What all share (test): co-IP
For assay [1], the target named is Vps13^N3 (Vps13^GFP, conserved asparagine of VAB repeat 3 to alanine) (S. cerevisiae) (UniProt Q07878).
The target of assay [2] is Vps13^N1 (Vps13^GFP, conserved asparagine of VAB repeat 1 to alanine) (S. cerevisiae) (UniProt Q07878).
The target in assay [3] is Vps13^N4 (Vps13^GFP, conserved asparagine of VAB repeat 4 to alanine) (S. cerevisiae, UniProt Q07878 1-3144, Vps13^N4A (N2216)).
Assay [4] deals with Vps13^N4S (Vps13^GFP N2216S, models VPS13B N2993S) (S. cerevisiae, UniProt Q07878 1-3144, Vps13^N4S (N2216)).
In assay [5] the target is Vps13^N2,3,4S (Vps13^GFP, conserved asparagines of VAB repeats 2, 3 and 4 to serine) (S. cerevisiae) (UniProt Q07878).

B1: Mcp1-3HA (natural protein, S. cerevisiae, UniProt Q12106 1-302, looked up)
chain: MIKLHEVPPEPVDPASLPHDVNAHSPEGDGNPDKRKKIFGIPYPFSRSSCRRFLWNCQKISVLPMALYFPLHAANTLITPAVSPDSAPDDVLMMVREILPSITTKLLVAGITLHVSAGVLLRIVNNWNKPRRNRHRHLKISAEQDLSQDSIGLTGGISGYLFGLYKTFRIPPQVISGYILVPVLIYHLLIMKWVPNSISTEVDFASIKQLLSSKNRWWKWLGGLVPLAILLESGVYHIGSGLCRYFGVRKMTSRKKWSTAINLLTLVGFVSLIRLMKEDSTKLGPNQFESIFKKIRLLLHVN
B1: the recovery relative to WT is 67% in assay [1], 24% in assay [2] and 42% in assay [3]. Also, the “pull-down relative to WT” value in assay [4] is 77%.

B2: Spo71-3HA (natural protein)
chain: MDSIVNVVEDDVKYAQRVTSFSSPQNANVKVFTIPRHSFTAFRLSYVSPTELSACSQVTLLGGIPKQWYADQNNQVWKLLTKISLRKVRKQSDMLRRYGYGTIYKKRVGKIPTALYLRKHFTWSYEDNTSIHNGHRLKEAEMEMKRTRSSPVQKSEYKLSLPRRCRSSSDQNFMRQELLKEKKSELSRNNSLPLIDTAQAVDIHPVLHEEDQENTNKRNKSLLSNLKRKDLGESKSISRKDYSHFDRIPSPSSARSVGETDFNYNREPSEDTLRYPDSIIEVTNRTSPAPNSILSRSGQFVNSNDLSDGFSTSNTINNVGLNANEKIFFNALQSMEKENLMLWKTSQKYGTYLDERRKSADAFQKRERGSCVDIGKLHSSHLPFINILPPWPTELTEEERIIHDRLASKHSHHIRKHVHNARNKTSCKIKDSVGTFLGMTNSLTNKATVKKRTGQILKKEKMLVMVKEAIQNKVPLPNFSENECFDTRVSERWKEYIVIARSTGRFDPPILLQFYRHRHIPEIEDISSIATKYHRNPLDFFLSRNCIVKFYSSLDKTISIQKPDKRLGGFIDESIEKKDELKHYSPIKIFILRCSSIRSSGRWYKFLLESLDRQLFTPAINLKIPLTEISIKINLNEIIFQKLIDLGKQEKDRLKICFLQRGYKIFQHPILRYFTVAILEKLKLAHYDYLIRKWDTENPVLGCALKRYDRLEWIPCDEDSLVTGIFAFCQSHLIQYRPIANRLRETKSLEGKCLKEPTPIEGFLIRLTDKYGSARTNFGKYSISTAYFFTCENLLFSMKAYRANPPLPIDSMIDDTSTEIEKEEIWKQWKKIPEVYEQQPYPLDTNDHIEWMNCQTTQSEYDSRDFYAFHCFHRRIDQILKTDNVIDLTEVKDIYQGTRTDYEADKIKYGVYKEASEIFWHRNYEIDDVSRSVINIETSNGLLLKLLATSATVAEEWVIKLKQMISYWKNKQREDTERLLKIRRSNAGLLMLNGEEETKIGENTLRWIVEHGRADEQTFNANGISLSRPLIQKGPLYQKPHKHSVFSKYYVVLISGFIVLFHCFHRSTTGFAKEVLEYAHYVTIPIDDCYLYSGTTTELDLLQRDRTFDEINYGSHALPRVYGDGWRSVEDESSRCFTLWFGTRRALSSNRLQKKGNEKQYTQDYGRQDNNIDPPSAPEADLNNSNVPSNTDKIHFTKKLGVSGKSMVFMARSRQERDLWVMSIYYELERLRRTASTSNSRNQTM
Turning to B2, the recovery relative to WT in assay [5] was found to be 42%. Besides, the pull-down relative to WT in assay [2] is 41%.

B3: Ypt35-3HA (natural protein)
chain: MSDKISFLPPEPIQLLDEDSTEPELDIDSQQENEGPISASNSNDSTSHSNDCGATITRTRPRRSSSINANFSFQKAHVSDCTIVNGDHGTKFAVWRITVFLEPNLKAFAAKRESYKIQTYKRYSDFVRLRENLLTRIKTAKPEKLNCLQIPHLPPSVQWYSSWKYQEVNLNKDWLAKRQRGLEYFLNHIILNSSLVEMTKDILIQFLEPSKRVA
For B3, in assay [2], the recovery relative to WT is 24%.

Source of the values: article PMC7068118 (Human Molecular Genetics, 2020).
